Tests used:
cathepsin B = target: T1, cathepsin B (Mus musculus, UniProt P10605); test: Cathepsin B activity in crude cytoplasmic extracts, RelA^−/− MEFs; format: cell-based; settings: TNF-α 0.2 ng/ml, CHX 0.1 μg/ml; FIG. 1C, 7A
T1 construct: endogenous in cells; host or cells: RelA-/- or RelA+/+ MEFs (retrovirally transduced with GFP, RelA, Spi2A or antisense Spi2A)
Description: Survival Assays. Although RelA^−/− MEFs are markedly more sensitive to TNF-α compared to RelA^+/+ MEFs, low levels of CHX (0.1 μg/ml) were used in the survival assays. This was to suppress any protective activity of constitutively active non-RelA NF-κB molecules that are present in RelA^−/− MEFs (FIG. 4). Thus, RelA^−/− MEFs were treated with CHX and TNF-α (R&D) and the number of live GFP-positive adherent cells was counted by flow cytometry after 16 h, if not indicated otherwise. Live cells were defined as those that excluded propidium iodide (PI-negative) and had the appropriate size, as defined by forward and side scatter characteristics (Coligan et al., 1995). For RelA^+/+ MEFs, TNF-α-cytotoxicity was determined after 16 h with CHX (10 μg/ml), if not indicated otherwise. Cathepsin B activity was inhibited by a 1 h pre-treatment of MEFs with CA-074 Me (30 μM) (Peptide Institute). […] RelA^−/− MEFs were treated with (10-50 μM) sphingosine (Calbiochem) and the number of live GFP-positive adherent cells was counted by flow cytometry after 2 h.
Death effector assays. Death effector pathways were induced in […] MEFs by treatment TNF-α (0.2 ng/ml) and CHX (0.1 μg/ml). […] Protein concentration was determined by Lowry assay (DC-protein assay kit, Biorad). […]
Colorimetric assays for capases were performed in reaction buffer (50 mM HEPES, pH 7.4, 100 mM NaCl, 10 mM DTT, 1 mM EDTA, 10% glycerol, 0.1% CHAPS) at 37° C. on crude cytoplasmic extracts using p-Nitoaniline (pNA)-labeled substrates (Calbiochem) specific for caspases 3 and 7 (Ac-DEVD-pNA), caspase 8 (Ac-IETD-pNA), caspase 9 (Ac-LEHD-pNA), each at 0.2 mM. Specific activity was determined by subtracting the apparent activity detected after 1 h pre-incubation of extract with the pan-caspase inhibitor Z-VAD.fmk at 50 μM (ICN Biomedicals Inc), then normalizing for the amount of protein. […] Specific activity was determined by subtracting the apparent activity detected after 30 min pre-incubation of extract at 37° C. with the cathespin B inhibitor CA-074 Me at 30 μM (Peptide Institute) then normalizing for the amount of protein.

NIH3T3 cells = test: TNF-α death assays, NIH3T3 cells; format: cell-based; settings: TNF-α + Z-VAD.fmk 50 μM; FIG. 9B, 10B
Description: TNF-α death assays. NIH3T3 cells were transduced with MIGR1 retrovirus (Zhang and Ren, 1998) encoding either GFP alone, or Spi2A in the forward (sense) or reverse (antisense) orientation and stable clones generated, as described previously (Liu et al., 2003). Cells were treated with TNF-α (R&D) and after 16 h the number of live GFP-positive adherent cells were counted by flow cytometry (Liu et al., 2003). Live cells were defined as those that excluded propidium iodide (PI-negative) and had the appropriate size, as defined by forward and side light scatter characteristics. Caspase activity was inhibited by pre-treatment of cells or extracts for 1 h with Z-VAD.fmk (ICN Biomedicals Inc; 50 μM). […] In anti-sense experiments the level of Spi2A mRNA was quantitated by real-time PCR using primers and probes specific for Spi2A (Inglis et al., 1991) and cyclofilin A control mRNA (Medhurst et al., 2000), 4 h after treatment with Z-VAD.fmk ([…]) and TNF-α (10 ng/ml), as described previously (Liu et al., 2003).

RelA^−/− MEFs = test: Mitochondrial membrane potential (JC-1), RelA^−/− MEFs; format: cell-based, mouse; settings: TNF-α 0.2 ng/ml, CHX 0.1 μg/ml; FIG. 5C
Description: Death effector assays. Death effector pathways were induced in […] MEFs by treatment TNF-α (0.2 ng/ml) and CHX (0.1 μg/ml). Assays for executioner proteases (caspases and cathepsin B) were performed on crude cytoplasmic extracts (Stegh et al., 2000). Briefly, MEFs (10^6) were lysed in 10 mM Tris-Cl, pH 7.5, 100 mM NaCl, 1 mM EDTA, 0.01% Triton X-100 (50 μl) for 30 min on ice then centrifuged at 15,000 g for 30 min at 4° C. and the supernatant recovered. Protein concentration was determined by Lowry assay (DC-protein assay kit, Biorad). Western immunoblots were performed on crude cytosolic extracts (50 μg per lane) using standard protocols and probed with the following antibodies: goat anti-mouse Bid antiserum (1 μg/ml; R&D systems), rabbit anti-human caspase 9 antiserum (2 μg/ml; Cell Signaling Technology), rabbit anti-human caspase 3 antiserum (2 μg/ml; Cell Signaling Technology), mouse anti-human caspase 8 monoclonal antibody clone 12F5 (1 μg/ml; Axxora). […]
Mitochondrial membrane potential and ROS production were measured using the fluorescent dyes JC-1 (3 μg/ml) and dihydroethidium (HE) (5 μM)(Molecular Probes) respectively, and flow cytometry according to the manufacturer's instructions.

T1 sequence (P10605 80-333): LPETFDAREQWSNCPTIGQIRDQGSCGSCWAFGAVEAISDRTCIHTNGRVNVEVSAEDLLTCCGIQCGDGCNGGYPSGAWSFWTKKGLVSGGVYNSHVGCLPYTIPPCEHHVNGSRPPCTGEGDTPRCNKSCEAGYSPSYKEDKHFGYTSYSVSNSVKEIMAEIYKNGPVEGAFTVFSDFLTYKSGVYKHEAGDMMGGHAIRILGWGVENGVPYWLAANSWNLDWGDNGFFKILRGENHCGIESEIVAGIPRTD

B1: Spi2A: murine Spi2A polypeptide, SEQ ID NO:2; purified as C-terminal 3×FLAG protein or expressed from MIGR1 retrovirus in cells and bone-marrow chimeras (protein, listed as Mus musculus)
chain: MAGVSPAVFGCPDVTLGRNTAVREVQENVTSVDSLTLVSSNTDFAFSLYRKLVLKNPDENVVFSPFSICTALALLSLGAKSNTLKEILEGLKFNLTETPEPDIHQGFRYLLDLLSQPGNQVQISTGSALFIEKHLQILAEFKEKARALYQAEAFTADFQQPLKATKLINDYVSNHTQGKIKELISGLKESTLMVLVNYIYFKGKWKNPFDPNDTFKSEFYLDEKRSVIVSMMKTGYLTTPYFRDEELSCTVVELKYTGNASAMFILPDQGRMQQVEASLQPETLRKWKNSLKPRMIHELRLPKFSISTDYSLEHILPELGIREVFSTHADLSAITGTKDLRVSQVVHKAVLDVAEKGTEAAAATGMAGVGCCAVFDFLEIFFNRPFLMIISDTKAHIALFMAKVTNPERSTNFPNGEGASSQRLESKRLCFGDPLCLIGQ
modifications: C-terminal 3xFLAG tag
notes: purified as C-terminal 3×FLAG protein or expressed from MIGR1 retrovirus in cells and bone-marrow chimeras
Cytosolic cathepsin B activity after TNF-α, retrovirally transduced cells (cathepsin B): inhibited the induction | Survival against TNF-α in the absence of caspase activity, transduced clones vs GFP (NIH3T3 cells): markedly improved survival | mitochondrial depolarization (RelA^−/− MEFs): virtually abrogated
